For three variants, percent of parent results are on record in publication PMC4930482.

To fix the notation:
B1: RNF26, wild type (coIP of Figures 5A and 5B) [not stated] / EPS15 (endogenous) [human (endogenous in a human melanoma cell line and in HEK293T)] (parent)
chain 1: MEAVYLVVNGLGLVLDVLTLVLDLNFLLVSSLLASLAWLLAFVYNLPHTVLTSLLHLGRGVLLSLLALIEAVVRFTCGGLQALCTLLYSCCSGLESLKLLGHLASHGALRSREILHRGVLNVVSSGHALLRQACDICAIAMSLVAYVINSLVNICLIGTQNLFSLVLALWDAVTGPLWRMTDVVAAFLAHISSSAVAMAILLWTPCQLALELLASAARLLASFVLVNLTGLVLLACVLAVTVTVLHPDFTLRLATQALSQLHARPSYHRLREDVMRLSRLALGSEAWRRVWSRSLQLASWPNRGGAPGAPQGDPMRVFSVRTRRQDTLPEAGRRSEAEEEEARTIRVTPVRGRERLNEEEPPGGQDPWKLLKEQEERKKCVICQDQSKTVLLLPCRHLCLCQACTEILMRHPVYHRNCPLCRRGILQTLNVYL
chain 2: MAAAAQLSLTQLSSGNPVYEKYYRQVDTGNTGRVLASDAAAFLKKSGLPDLILGKIWDLADTDGKGILNKQEFFVALRLVACAQNGLEVSLSSLNLAVPPPRFHDTSSPLLISGTSAAELPWAVKPEDKAKYDAIFDSLSPVNGFLSGDKVKPVLLNSKLPVDILGRVWELSDIDHDGMLDRDEFAVAMFLVYCALEKEPVPMSLPPALVPPSKRKTWVVSPAEKAKYDEIFLKTDKDMDGFVSGLEVREIFLKTGLPSTLLAHIWSLCDTKDCGKLSKDQFALAFHLISQKLIKGIDPPHVLTPEMIPPSDRASLQKNIIGSSPVADFSAIKELDTLNNEIVDLQREKNNVEQDLKEKEDTIKQRTSEVQDLQDEVQRENTNLQKLQAQKQQVQELLDELDEQKAQLEEQLKEVRKKCAEEAQLISSLKAELTSQESQISTYEEELAKAREELSRLQQETAELEESVESGKAQLEPLQQHLQDSQQEISSMQMKLMEMKDLENHNSQLNWCSSPHSILVNGATDYCSLSTSSSETANLNEHVEGQSNLESEPIHQESPARSSPELLPSGVTDENEVTTAVTEKVCSELDNNRHSKEEDPFNVDSSSLTGPVADTNLDFFQSDPFVGSDPFKDDPFGKIDPFGGDPFKGSDPFASDCFFRQSTDPFATSSTDPFSAANNSSITSVETLKHNDPFAPGGTVVAASDSATDPFASVFGNESFGGGFADFSTLSKVNNEDPFRSATSSSVSNVVITKNVFEETSVKSEDEPPALPPKIGTPTRPCPLPPGKRSINKLDSPDPFKLNDPFQPFPGNDSPKEKDPEIFCDPFTSATTTTNKEADPSNFANFSAYPSEEDMIEWAKRESEREEEQRLARLNQQEQEDLELAIALSKSEISEA
B2: RNF26, wild type (coIP of Figures 5A and 5B) [not stated] / USP15 (endogenous) [human (endogenous in a human melanoma cell line and in HEK293T)] (parent)
chain 1: B1 chain 1
chain 2: MAEGGAADLDTQRSDIATLLKTSLRKGDTWYLVDSRWFKQWKKYVGFDSWDKYQMGDQNVYPGPIDNSGLLKDGDAQSLKEHLIDELDYILLPTEGWNKLVSWYTLMEGQEPIARKVVEQGMFVKHCKVEVYLTELKLCENGNMNNVVTRRFSKADTIDTIEKEIRKIFSIPDEKETRLWNKYMSNTFEPLNKPDSTIQDAGLYQGQVLVIEQKNEDGTWPRGPSTPKSPGASNFSTLPKISPSSLSNNYNNMNNRNVKNSNYCLPSYTAYKNYDYSEPGRNNEQPGLCGLSNLGNTCFMNSAIQCLSNTPPLTEYFLNDKYQEELNFDNPLGMRGEIAKSYAELIKQMWSGKFSYVTPRAFKTQVGRFAPQFSGYQQQDCQELLAFLLDGLHEDLNRIRKKPYIQLKDADGRPDKVVAEEAWENHLKRNDSIIVDIFHGLFKSTLVCPECAKISVTFDPFCYLTLPLPMKKERTLEVYLVRMDPLTKPMQYKVVVPKIGNILDLCTALSALSGIPADKMIVTDIYNHRFHRIFAMDENLSSIMERDDIYVFEININRTEDTEHVIIPVCLREKFRHSSYTHHTGSSLFGQPFLMAVPRNNTEDKLYNLLLLRMCRYVKISTETEETEGSLHCCKDQNINGNGPNGIHEEGSPSEMETDEPDDESSQDQELPSENENSQSEDSVGGDNDSENGLCTEDTCKGQLTGHKKRLFTFQFNNLGNTDINYIKDDTRHIRFDDRQLRLDERSFLALDWDPDLKKRYFDENAAEDFEKHESVEYKPPKKPFVKLKDCIELFTTKEKLGAEDPWYCPNCKEHQQATKKLDLWSLPPVLVVHLKRFSYSRYMRDKLDTLVDFPINDLDMSEFLINPNAGPCRYNLIAVSNHYGGMGGGHYTAFAKNKDDGKWYYFDDSSVSTASEDQIVSKAAYVLFYQRQDTFSGTGFFPLDRETKGASAATGIPLESDEDSNDNDNDIENENCMHTN
B3: RNF26, wild type (coIP of Figures 5A and 5B) [not stated] / TOLLIP (endogenous) [human (endogenous in a human melanoma cell line and in HEK293T)] (parent)
chain 1: B1 chain 1
chain 2: not shown

Variants of B1 are the subject of one test. The experiment in a line: coIP. Particulars: with EPS15 (endogenous) [human (endogenous in a human melanoma cell line and in HEK293T)]; HEK293T cells; n = 3; read off a plot.
For the variant chain 1 I382R, the percent of parent was determined as 22 % Co-IP.

The variants in the next test derive from B2. Nature of the test: coIP. Particulars: with USP15 (endogenous) [human (endogenous in a human melanoma cell line and in HEK293T)]; HEK293T cells; n = 3; read off a plot.
As for chain 1 I382R, the percent of parent came to 27 % Co-IP.

The next test covers variants of B3. The experiment in a line: coIP. The following applies: with TOLLIP (endogenous) [human (endogenous in a human melanoma cell line and in HEK293T)]; HEK293T cells; n = 3; read off a plot. Details: reference not given here.
For the variant chain 1 I382R, the percent of parent is 12 % Co-IP.
